Non-standard residues stand in square brackets, D forms with d. No end group written: not given here. *: point of attachment. Biotin = O=C1N[C@H]2[C@H](CS[C@H]2CCCCC(=O)*)N1; βAla = NCCC(=O)O

The IC50 is the concentration at which inhibition is half-maximal. A high value points to weaker potency in that assay.

For assay [1], the target named is EphA2 extracellular domain fused to the Fc portion of an antibody (EphA2 Fc). As to the kind of experiment: competition ELISA: inhibition of ephrin-A5 AP binding to immobilized EphA2 Fc; average ± SE (number of experiments). Background: ELISA stands for enzyme-linked immunosorbent assay.
Sequence of EphA2 extracellular domain fused to the Fc portion of an antibody (EphA2 Fc) (P29317 whole entry, the tested form may be a part): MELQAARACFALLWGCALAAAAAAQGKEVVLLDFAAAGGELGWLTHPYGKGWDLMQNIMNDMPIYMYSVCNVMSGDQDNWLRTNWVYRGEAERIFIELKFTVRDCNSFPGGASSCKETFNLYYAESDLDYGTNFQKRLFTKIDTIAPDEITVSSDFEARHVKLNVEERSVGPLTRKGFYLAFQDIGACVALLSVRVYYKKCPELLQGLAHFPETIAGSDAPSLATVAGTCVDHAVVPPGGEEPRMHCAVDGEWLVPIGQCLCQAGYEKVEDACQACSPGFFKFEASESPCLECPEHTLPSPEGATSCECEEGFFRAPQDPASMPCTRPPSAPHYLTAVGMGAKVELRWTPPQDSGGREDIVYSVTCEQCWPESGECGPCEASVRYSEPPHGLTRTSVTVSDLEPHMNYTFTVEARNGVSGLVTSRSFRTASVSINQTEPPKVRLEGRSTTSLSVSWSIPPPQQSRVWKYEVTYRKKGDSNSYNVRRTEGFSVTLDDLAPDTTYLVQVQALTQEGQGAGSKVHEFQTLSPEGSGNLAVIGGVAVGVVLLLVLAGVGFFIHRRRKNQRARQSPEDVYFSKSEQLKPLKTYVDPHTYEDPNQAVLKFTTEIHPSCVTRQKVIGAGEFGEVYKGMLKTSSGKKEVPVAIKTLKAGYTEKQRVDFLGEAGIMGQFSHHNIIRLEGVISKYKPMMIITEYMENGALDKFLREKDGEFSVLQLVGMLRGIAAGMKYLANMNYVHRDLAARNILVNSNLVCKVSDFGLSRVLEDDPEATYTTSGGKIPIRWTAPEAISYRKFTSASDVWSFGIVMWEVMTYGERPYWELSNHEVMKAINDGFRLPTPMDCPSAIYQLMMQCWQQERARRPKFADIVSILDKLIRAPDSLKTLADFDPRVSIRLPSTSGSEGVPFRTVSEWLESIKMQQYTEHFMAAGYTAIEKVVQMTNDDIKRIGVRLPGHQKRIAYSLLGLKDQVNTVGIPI
Assay [2] shares this target. As to the kind of experiment: ELISA, inhibition of ephrin-A5 AP binding to immobilized EphA2 Fc; representative experiment; concentrations in nM.
The target is the same in assay [3]. As to the kind of experiment: ELISA, inhibition of ephrin-A5 AP binding to immobilized EphA2 Fc; representative experiment.
Assay [4] shares this target. As to the kind of experiment: competition ELISA: inhibition of ephrin-A5 AP binding to EphA2 Fc.

In assay [1], [βAla]WLAYPDSVPYSK [βA-WLA-YSK] came in with an IC50 of 380 nM. In the case of [βAla]WLAYPDSVPYR [βA-WLA-YR], the IC50 in assay [1] came to 390 nM; in assay [2] it was 360 nM. In turn, [βAla]WLAYPDSVPYK(Biotin) [βA-WLA-YK-bio] yielded an IC50 in assay [1] of 730 nM. The same measure, in the same setting: to [βAla]WLAYPDSVPYGSK(Biotin) [βA-WLA-YGSK-bio] belongs 400 nM. As to [βAla]WLAYPDSVPM-NH2 [βA-WLAam], the results for the IC50 in assay [1] and in assay [3] were 840 nM and 680 nM, respectively. The molecule further showed a fold increase in potency against WLAam in assay [4] of 2 fold.

Regarding WLAYPDSVPM-NH2 [WLAam], the IC50 came out at 1500 nM in assay [1] and 1400 nM in assay [2]. In assay [4], this molecule showed a fold improvement in potency against YSA1-10am of 2 fold. Turning to [βAla]WLAYPDSVPYGSGK(Biotin) [βA-WLA-YGSGK-bio], the IC50 in assay [1] came out at 330 nM. That is a sub-micromolar value.

As to [βAla]WLAYPDSVPYSPK(Biotin) [βA-WLA-YSPK-bio], the IC50 in assay [1] is 62 nM. This IC50 lies about 5.3-fold lower than the previous one.

Values taken from patent US12398179.
